assay: soluble on expression in E. coli; label from the status in PepcDB or PDB records

Sequence | soluble on expression in E. coli
MRCKRHTVDFSSSIGVCASCLRERLFTLAVSTAASENDDNDHRHSRISPPPLLFPRSVSPYVAPRKSDAGTGTGAGGRDSVASSNNRFFATPQVVVQSSSSEKVFESDRSFKKKKSGLSRFSSFFRTRSDDYDSRRDSCDASTVFSQPSSATTSRSWFSKVISVRSKKQSTTNTCYIEDLIASESDHHHHNQNRPRQRYCRGMSPAGDSTTNDESVEESPGRLRRTPVMGTPGRKKTATIGIGRSVSGMAFCLSPLVRAKPNCSSNWKAKFPPDFGYSGELKSPAKPHLSTAASFCGNRSKKLVDLGRVDHRR | soluble
MSHYDILQAPVISEKAYSAMERGVYSFWVSPKATKTEIKDAIQQAFGVRVIGISTMNVPGKRKRVGRFIGQRNDRKKAIVRLAEGQSIEALAGQA | soluble
MRMEAGEAAPPAGAGGRATGGWGKWVRLNVGGTVFLTTRQTLCREQKSFLSRLCQGEELQSDRDETGAYLIDRDPTYFGPILNFLRHGKLVLDKDMAEEGVLEEAEFYNIGPLIRIIKDRMEEKDYTVTQVPPKHVYRVLQCQEEELTQMVSTMSDGWRFEQLVNIGSSYNYGSEDQAEFLCVVSKELHSTPNGLSSESSRKTKSTEEQLEEQQQQEEEVEEVEVEQVQVEADAQEKGAANPQEDDC | soluble
MIPTERRQIILDMVAEKGIVSIAELTERMHVSHMTIRRDLQKLEQQGAVIQVSGGVQSSTRVAHEPSHQIKTELATPQKAAIGKLAASLVQPESCIYLDAGTTTLAIARQLVTMNKLTVVTNDFVIADYLMDNSNCTIIHTGGAVCRENRSCVGEAAATLLRGLMIDQAFISASSWSVRGISTPAEDKVTVKRAVASASRQKILVCDATKYGQVATWLALPLAEFNQIVTDDGLPESAIRALAKVDISLLMAKQ | not soluble
MSLEGRSRLWPKTSAPGAFSRRSPERSWPSRRVQRHFPAKEGREAASAAALRASRRSMVGLTVAVRTGPCDLATRKTKSRWATGSDMTKSSKATSLEILACDAGWRNYHFVKLTTDDGIVGWSEFDEGFGSPGVGAAIQRLSTRIIGQNIFQHERIYAELFAATRPAAGGVVAQALGAIENAMLDAKAKCLGVPCYELLGGKIRDRVRVYWSHCATWRINHPSWYKPPIESLDGVKAMGREVREKKFTALKTNIFSYDDGKPTGWRPGFGSPFAPEINVDRKILRDLRMHLEAIRDGAGPDVDILLDCNFNAKTEGYLKILRTIADLDMFWIEIDSFNPEALGYIRRQSPHPISSCETLLGLREFLPYFHEQAMDVAIIDTPWNGVWQSMKIASAAEAFEVNVAPHNFYGHLCSMMNAHFCAAVPNLRIMEIDIDRLSWDRELFTHEPEIEDGHLIIPDRPGWGTEPNEEALRAHPPKTNGGLLNYGRKSEGHHHHHH | not soluble
SNAMSVQLVKGVNLHVIPTEKYKTVRLLVRFNTRLNHETITKRTLLSSLMETNSLNYPNQVKLSERLAELYGASFGIGVSKKGNQHWFNISMNIVNDHYLQDSQVLAEAVDFLKEIIFAPNIQAGQFEAETFQREKENLKAYLESIVEDKQTYASLALQSVYFNQSEDQKIPSFGTVAALAEETAASLAAYYQKMLAEDQVDIFVLGDVNEAELVPLFKQLPFTPREEGKAAIFYNQPIRNVIEERTEREVLAQSKLNLAYNTDIYYGDSYYFALQVFNGIFGGFPHSKLFMNVREKEHLAYYASSSIDTFRGFMTVQTGIDGKNRNQVLRLISTELENIRLGKIRELEIEQTKAMLKNQYILALDNAGAWLEKEYLNELMPQTMLTAEEWIARINAVTIPEIQEVAKRLELQAIFFLEGETEND | soluble
MSLIYAQILAGGKGTRMGNVSMPKQFLPLNGKPIIVHTVEKFILNTRFDKILISSPKEWMNHAEDNIKKYISDDRIVVIEGGEDRNETIMNGIRFVEKTYGLTDDDIIVTHDAVRPFLTHRIIEENIDAALETGAVDTVIEALDTIVESSNHEVITDIPVRDHMYQGQTPQSFNMKKVFNHYQNLTPEKKQILTDACKICLLAGDDVKLVKGEIFNIKITTPYDLKVANAIIQERIANEGHHHHHH | soluble
MSLAYTKKKYTPKTKEQIKEETKEIMDKVLTDITKYYRSPEDMLELANFMAKFSNYSPKNMQLIRSQFENAYACANFKAFKDAGFHVNKGETAMKVFHPYVKEYVRDPRTKLAIPLGKLTEEQKKQVKNGELKVEKQTNYYLKATAFDISQTNAKPEDLPKIFPNRQFNFEINDENKELLKIGIQALAEKENIKIKTMGQGALVKELGNVHGAYVQVLDSSYSQIVMNPRNTETNELSVAIHELAHAKLHGNKIDPLEHTPTKEFEAELTSYIVCKHYGMDTSESAVPYIAQWTKNGQDIEEKDKSIMRVHETASSFINTIDKKISELQREGHHHHHH | soluble
MVQQQQQSQQRMMELHERNDREKLARKTEKEREEERRKQEDDKILQLEKKLEEFQENARFIGDLASNFQTKYQDALNGRIYTLVRGLQDLDRMKGTFSDKKVPLDLLPYLDDGKNPCLYSKHCMEKTLEKNKAVNGKIEIYKKFRAHLMKEFSEEMPDLVMYYRSIREDLDLS | not soluble
MGSDKIHHHHHHMNTLKKITNNISKVIIGKDESIELAAIALIAKGHILLEDVPGTGKTTLAKSLAKSVDAKFQRIQFTADTLPGDVIGLEYFNVKESDFKTRLGPIFANIVLVDEINRAVPRTQSSLLEVMEERTVTIAKQTHSLPEPFLVIATQNPLESAGTFPLPDAQLDRFLLTIRQGYPTREAEKEMMNRFQMNDPLETLHSIISSEEIITMQKRAREVLVGNDVQDYLLEIIEATRKHELIEIGVSPRGTLAFMRAIQARAILNERDYCTPDDIKQLAASICTHRLTLTIEGEMKTTKEQIMKEILHTIDVPVENVR | not soluble
MKHWRPFRFPPLIDGAPLAPDAAAEVQASAADGFRQGMDAGYREGFDSGEAAGRDAGYQAGLEQGRAEGAAAARAETLAGLETLGAPLAAAIEQLNKLCRDYQAAQRDEVVDLVAKVARQVIRCELALKPVQILDLVEETLAALPQGAHSQGEVEVLLNPEECQRIRELAPERAAQWKLSADPSLAPGECRLRGAEFEADAGCQQRLERCVDSLREQLAAEEG | not soluble
MGSDKIHHHHHHMWTILCDKDSGGVLLRKGVSTSIIRSNPDLLEALPKAELYELGFFKAEDLEKVLRFFHDKNFGIHAPFIYRYRYHHPNPTSLNEEEREDTFSVNKKCAELARKIGAEYMIIHFPNALQKENWLSVYREVEREFSELAGVISVRVENVYGNDHFHSAEDYRTFLENTGCKMCVDIGHLLLDAEVYGFSPIEFIEKLSDFVEEFHIYYADFETYKKCHHAPWGESKEFLEVLEFIKDFDADFVLEPTPECEEGLEKLFEYWRDL | not soluble
MNLTNYHSHTLYCDGRAGMEDFIRFAISRGFTSYGISSHAPLPFPTHWTMEWDRMDDYLDEFTRMKEKYASEIELAVGLEIDYLNEDSNPSVRRFQELPLDYRIGSVHLLYNDRDEVVDIDVCAEVFRDIVDQHFGGDLDRVIHLYYDRLLRMVELGGFDILGHADKMHHNAACYRPGLLDESWYDALIHDYFSAVAAKGYIVEINTKALHHLNTFFPNERYFPLLKELGVRVQVNSDSHYPERINSGRPEALAALQKAGFETVTEWHGGKWIEMPLLEHHHHHH | soluble
MGSDKIHHHHHHENLYFQGMSVAHENARRIISDILGKQNIERVWFVGCGGSLTGFWPGKYFLDCEASKLAVGYITSNEFVHATPKALGKNSVVILASQQGNTAETVAAARVAREKGAATIGLVYQPDTPLCEYSDYIIEYQWARYPETVDPAQQKAAYSLWLALEILAQTEGYAQYDELVSAFGRFSDVVHGAQRQVQEDAQRFAAEWKDEKVVYMMGSGPSFGAAHQESICILLEMQWINSASIHSGEYFHGPFEITEPGTPFILLQSSGRTRPLDDRAIRFIERYQGKLQLIDADKLGIQDLSTDVGEYFCGLLHNCVLDVYNLALATARNHPLTTRRYMWKVEY | soluble
MGSDKIHHHHHHMIAHPCYVDKFSQQVHFHAIDFARSRWNIFLLWQLKNLIQQIQPAIVHAQAGKAAELIARIKPFLSGPKFITTVHGTKKNKSAYLAGDAVIAVSQALTQGIPESKAHVVYNGVYPQPVLTTENKEKLLQSIQKDFTELDTSKRVVMCIGRLEPVKNISLLIESMQQIDANLWIVGDGSLRASLEKQVSELNMQNRVAFLGFRTDARDLVQLADIVVLSSDREGFPLVMVEALQADKAMASTKVNGVIEWLPEQYLAEIGDTQGLAKAIEYALQPEAQNDFGPLYAKAKAELTVPAMAEQTLNIYKGLLKT | not soluble
MGSDKIHHHHHHMSTDKLAIIAVTERGRDLAITLTKTVAATIFVPEKHCTEQTNSLTPDFGTAMREIFTKYQALICIMATGIAVRTLAPVIEDKLSDPAVLVMDEHGKFIISLLSGHVGGANELTERIATITGGAAVITTATDRANVAAIDNIAKQLNGYLPDFKATTKRINGLLAAGKEVGLYIDEPLEIDTRGFTMEEVSPQVYISTKYKLQVATHERIQLVPKQFILGVGCRKGVSAETIDAAFTHFCEQENIHPRAFREIHSITLKAEEPAILHLAEKWHVPFIVHPAEELQTVAGKYPTSAFVQKTVQVGNVALSSADIGSNGNVVTSRFAENGVTFAAGKLTKNSEVAK | not soluble
MGYTLADKIWRSHVVRSAEGEPDLVYIDMHLLHEVNTPAAFAGLRAAGRTVRRPDLTLGTEDHNTPTDDVLRMITDPGAVEQLDHIRRNCRDFGIELYSLGDSARGIVHVIGPELGLTQPGMTLVCCDSHTSTHGAFGVLAFGIGTSQVEHVLATQTLPMAPMQN | not soluble
MTKLVLTPADTFFFKNHHATQAGETTVMESMFPPRPNTIYGALRAAYIYAYSSFDEFARGADERVKLWMGTPDERGAFRLHYCALADGDSLFLPLPLDYQVVEEGDSLKAYPLQLAKDRKPSSASTMWRLASSRREKTKSSQHRYVSLSEWKKALLLNQPIASLRTLSSFIVQEEKVGIQLDVSRRTAQEGFLYRVGKHRFLGDSSLVAYIDDGPDFSNVKWARIGGENRPWFIRQHPEEFRLWNDDEKRRIEQDIQRTKMAKIIFLSPAIFANGSRPAAMEGDRWTWPNGAVVTWLAAAIGRPELYGGWDIVRHRPKPRKWMIPAGSVIYVKIERDDDLRLVFSALDGIHLTDEGAEEGFGFAVLASVHESEEEL | not soluble
MPASEQGFWRGMETCGWGGGSYILYAWARNAPNLVLPKDVAFSVGHEQDGIKYFVLQVHYAQPFAGEVHDFSGVTMHISQKKPMNLAAVMLFVSGTPIPPQLPAFQNNITCMFESSTPIHPFAFRTHTHAMGRLVSAFFKHDGHWTKIGKRNPQWPQLFEGIPSKLMIGSGDQMSASCRFDSMDKNRTVNMGAMGVDEMCNFYMMFHYDAKLDNPYPQGAICAKDYPSKMIDYPKDGFELLPSRPELEHHAHQSKVPFGIVQEAIHENLGGVKLGQVAGLAFNNEQQLLVFQRAGRVWDASTFDNYNILLDKKPIADPVILVISYSGNQTKLERKLGGGQFYLPHGIYVDKDGFVYTTDVGSHTVAKWKIEGNELKNIWTSGELLMPGSDQHHYCKPTGITRVEDQLYVTDGYCNSRVVVLDLNGKRIRQFGLPGEDAGQFNLPHDIVSDSAGRLLVTDRENGRVQHMTTQGHVIEEFKSTMFTNIYSAASHEDYVFMVPGRPIMGHETEGIAVFVGRSGTGLIEYAFGPTTKGKREQMGPQFGQPHCLRVCPDGGHIFVGDIAEGKARLWQFKVNLLEMCGSKYDMIKIKLMILP | not soluble
GSHMASEKVAVETSVYLSELEWKSASTGYGEIQKDASCDGNTITLKGENGEKVSYDKGIGTHAHSEIVYSLEGLDYYDYFETFVGVDQEMAGTVASISFEVYLDNEKVFDSGLMTGDTTQKHVKVPIAGKNTLKLVVKDGGDSIGSDHGSFGDAKLT | soluble

Reference: the DeepSol protein solubility set
